Publication PMC7305164

Molecular target: Sso7d(W24A/R43E)-HTLV-1 IN(E156Q) (HTLV-1)
Assay: cryo-EM structure; SEC-purified HTLV-1 intasome (strand-transfer complex) of Sso7d-IN(E156Q), B56γ(11–380) and branched viral U5 LTR/target DNA; 3.7 Å, C2 symmetry imposed

With “Sso7d(W24A/R43E)-HTLV-1 IN(E156Q) (enzyme)” the stoichiometry N was 4.
